Results on nine molecules are retold here after patent US20210054072A1 (ALLAKOS, published 2021).

For test [1], the target named is T1, Siglec-7-ECD (human, UniProt Q9Y286 19-353).
T1 construct: also called p75; AIRM
The experiment in a line: bio-layer interferometry (ForteBio), 25 C, antibody captured on the sensor, Siglec-7-ECD as analyte 50 to 1.56 nM, 1:1 global fit. On the procedure: Antibody binding analysis was carried out by bio-layer interferometry (ForteBio). […] Antibodies were captured on anti-mouse kinetic sensors at 0.5 ug/mL; Siglec-7-ECD was used as analyte and diluted in assay buffer from 50 nM to 1.56 nM with 2× dilutions. Two-minute associations were conducted, followed by 10-minute dissociations. Results were determined relative to a control empty reference AHC sensor, and analyzed using ForteBio analysis software with 1:1 global fit parameters.

The next test addresses T2, Siglec-7-ECD-Fc (human, UniProt Q9Y286 19-353).
T2 construct: also called recombinant Siglec-7-Fc; Siglec-7-ECD-huFc; not shown: human Fc (huFc)
The experiment in a line: ligand blocking assay, flow cytometry: antibody (40 nM to 40 pM) mixed with 10 nM Siglec-7-ECD-Fc; blocked: binding of Siglec-7-ECD-Fc to its ligands on A375 melanoma cells. The protocol: Recombinant Siglec-7-Fc was added to A375 cells in the presence of anti-Siglec-7 antibodies at increasing concentrations and binding of the complex was detected on the cell surface.
Human melanoma cell line A375, which expresses high level of ligands for Siglec-7, was used to determine the blocking activity of anti-Siglec-7 antibodies in a cell based assay. Two-fold serial dilutions of anti-Siglec-7 antibodies (40 nM to 40 pM) were combined with 10 nM Siglec-7-ECD-Fc in FACS buffer (PBS/2% BSA) and incubated on ice for 30 minutes. 2.5×10e4 A375 cells per well were added to round bottom 96-well tissue culture plates in FACS buffer, plates were centrifuged at 400 g for 2 min, supernatant was removed and cells were re-suspended in 100 ul of the antibody-Siglec-7 complexes. After a 1 hour incubation on ice, cells were washed twice and incubated for 30 minutes with goat anti-human F(ab′)2 fragment conjugated to AF647 (Jackson IR labs) at 1 ug/ml in FACS buffer. After two more washes, cells were fixed in PBS/2% PFA and acquired on a Novocyte flow cytometer (ACEA biosciences). IC₅₀ values for blocking were determined based on plotting mean fluorescence in the APC channel and analysis using Prism Graphpad software.

In test [2] the target is T1, Siglec-7-ECD. Kind of test: bio-layer interferometry (ForteBio), 25 C, antibody captured on the sensor, Siglec-7-ECD as analyte 50 to 1.56 nM, 1:1 global fit; the same value stands beside the sensorgrams ('QA79 KD=706pM', four traces up to about 0.16 nm, visible dissociation to 780 s).
The target of test [3] is Siglec-7 on primary human NK cells (human, UniProt Q9Y286 19-467). Kind of test: cell-based or functional assay.
Sequence of Siglec-7 on primary human NK cells (Q9Y286 19-467 limits assumed): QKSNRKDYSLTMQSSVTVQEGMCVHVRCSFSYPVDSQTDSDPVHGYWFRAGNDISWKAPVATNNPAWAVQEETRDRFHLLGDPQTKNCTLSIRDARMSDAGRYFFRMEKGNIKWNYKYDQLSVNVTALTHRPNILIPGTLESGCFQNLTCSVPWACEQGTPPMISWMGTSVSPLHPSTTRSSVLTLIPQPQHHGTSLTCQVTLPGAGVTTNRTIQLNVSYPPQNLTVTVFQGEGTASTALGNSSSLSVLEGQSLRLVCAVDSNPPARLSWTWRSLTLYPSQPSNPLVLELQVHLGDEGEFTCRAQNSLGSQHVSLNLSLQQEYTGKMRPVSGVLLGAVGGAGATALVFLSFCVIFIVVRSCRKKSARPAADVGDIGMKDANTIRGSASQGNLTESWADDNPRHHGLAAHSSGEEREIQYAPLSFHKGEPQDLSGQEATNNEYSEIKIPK

T2 sequence (Q9Y286 19-353): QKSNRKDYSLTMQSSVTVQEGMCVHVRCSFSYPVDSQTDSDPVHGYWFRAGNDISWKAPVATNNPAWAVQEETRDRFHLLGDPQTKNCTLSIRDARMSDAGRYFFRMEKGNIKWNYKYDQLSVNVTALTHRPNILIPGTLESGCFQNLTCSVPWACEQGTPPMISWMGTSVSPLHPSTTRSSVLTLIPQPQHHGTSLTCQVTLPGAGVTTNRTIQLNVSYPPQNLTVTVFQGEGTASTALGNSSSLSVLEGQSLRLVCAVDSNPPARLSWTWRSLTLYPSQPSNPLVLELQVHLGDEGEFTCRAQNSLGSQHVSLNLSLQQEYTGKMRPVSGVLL
T1 sequence (Q9Y286 19-353 limits assumed): as the sequence (Q9Y286 19-353) above

In the test with Siglec-7-ECD [1], anti-Siglec-7 antibody S7.7 returned a dissociation constant (Kd) of 0.422 nM. For the same molecule, the IC50 with Siglec-7-ECD-Fc was 4.26 nM. For the molecule anti-Siglec-7 antibody QA79, in the test with Siglec-7-ECD-Fc, the IC50 was determined as 7.49 nM. This molecule showed a dissociation constant (Kd) in the test with Siglec-7-ECD [2] of 0.706 nM. Take anti-Siglec-7 antibody Z176: in the test with Siglec-7-ECD [1], the dissociation constant Kd was determined as 0.086 nM. In other words, the picomolar range.

B1: 5215-13 (antibody, V domains shown)
VH: EVQLQQSGAELVKPGASVKLSCTVSGFNFKDTYIHWVKQRPEQGLEWIGRIDPANGNTKYASKFQDKATITADTSSNTVYMQLSSLTSEDTAVYYCTRGWDGYYFDCWGQGTTLTVSS
VL: DIVLTQSPASLVVSLGLRATISCRASQSVSTSSHSYLHWYQQKPGQPPKLLIKYASNLASGVPARFSGSGSGADFTLNIHPVEEEDTATYYCQHSWEIPYTFGGGTKLEIK
notes: anti-Siglec-7 monoclonal antibody of the panel
With B1, the dissociation constant (Kd) in the test with Siglec-7-ECD [1] stood at 0.99 nM. The same molecule showed an IC50 with Siglec-7-ECD-Fc of 1.32 nM.

B2: monoclonal antibody 3F1 (antibody, V domains shown)
VH: EFQLQQSGPEMVKPGASVKMSCKASGDSFTDYKINWVKQNNGKSLEWIGVINPDSGTTSYNQIFEGKATLTVDQSSSTAYMQVNRLTSEDSAVYYCTTWDDYSFYAMDYWGQGTSVTVSS
VL: DVLMTQTPLSLPVSLGDQASISCRSSQNIVHSNGNTYLEWFLQKPGQSPKLLIYKVSNRFSGVPDRFSGSGSGTDFTLKISRVEAEDLGVYYCFQGSHIPWTFGGGTKLEIK
On to B2, for which the “IC50 (read off the curve), internalization of Siglec-7” value (“IC50 (read off the curve)” below) in test [3] is around 0.01 nM.

B3: 5215-9 (antibody, V domains shown)
VH: EVQLQQSGAELVKSGASVKLSCTASGFNIKDTYMHWVKQRPEKGLEWIGWIDPADGHTKYDPKFQGKATITADTSSNTAYLHLSSLTSEDAAVYYCPRGGSSPYFDYWGQGTTLTVSS
VL: DIVLTQSPASLTISLGQRATISCRASQSVSTSTYSYIHWYQQKPGQPPKLLIKYASNLASGVPARFSGSGSGTDFSLSIHPMEEEDTATYYCQHSWKIPFTFGSGTKLEIK
notes: as for B1
B3 yielded a Kd with Siglec-7-ECD [1] of 0.001 nM. The same molecule had a half-inhibitory concentration (IC50) with Siglec-7-ECD-Fc of 5.33 nM.

B4: 5215-2 (antibody, V domains shown)
VH: DVQLQESGPGLVKPSQSLSLTCTVTGYSITSDYVWTWIRQFPGNKLEWMGYITYSDSTNYNPSLKSRLSITRDTSKNQFFLQLSSVTTEDTATYFCARSLTGNYFDYWGQGTTLTVSS
VL: VIVLTQSPASLEVSLGQRATISCRASQTVRISSYSYMNWYQQKPGQPPKLLIKYASNLESGVPARFSGSGSGTDFTLNIHPVEEEDTATYYCQHSWKIPTFGGGTKLEIK
notes: as for B1
The molecule B4 had a dissociation constant Kd with Siglec-7-ECD [1] of 0.149 nM. The half-inhibitory concentration (IC50) with Siglec-7-ECD-Fc worked out at 4.12 nM.

B5: monoclonal antibody 8A2 (antibody, V domains shown)
VH: QVQLKESGPGLVAPSQSLSITCTVSGFSLTTYGVDWVRQFPGKGLEWLGVIWGGGNTNYNSALMSRLSISKDTSKSQVFLKMNSLQTDDTAMYYCAKHKGTSHAMEYWGQGTSVTVSS
VL: QIVLTQSPAIMSASPGEKVTMTCSASSRVIFMYWYQQKPGSSPRLLIYDTSNLASGVPVRFSGGGSGTSYSLTISRMEAEDAATYYCQQWSSYPPTFGAGTKLELK
Turning to B5, the “IC50 (read off the curve)” value in test [3] is around 0.01 nM.

B6: monoclonal antibody 16H11 (antibody, V domains shown)
VH: QVQLHQSGAELVKPGASVKISCKGSGYDFSNFWMNWVKQRPGKGLEWIGQIYPGDGEIKYNGKFKGKATLTADESSSTAYIHLSSLTSEDSAVYFCARDDYLRAMDYWGQGTSVTVSS
VL: DIQMTQSPASLSASVGETVTITCRASGNIHNYLAWFQQKQGKSPHFLVYSAKALADGVPSRFSGSGSGTQYSLKINSLQPEDFGTYYCQHFWSSPYTFGGGTKLEIK
Take B6: in test [3], the “IC50 (read off the curve)” value is around 0.01 nM.
